The target in assay [1] is T1, ZIKV-H/PF/2013 sE protein (aa 1-404) (Zika virus (strain H/PF/2013)).
T1 construct: also called ZIKV sE; ZIKV (sE)2
Briefly: BLI. (In BLI a coated tip is dipped into the sample, and binding shifts an interference pattern.)

Assay [2] deals with T2, DENV4_Burma/63632/1976 sE protein (aa 1-395) (Dengue virus 4 (strain Burma/63632/1976)).
T2 construct: also called DENV4 sE
T2 chain: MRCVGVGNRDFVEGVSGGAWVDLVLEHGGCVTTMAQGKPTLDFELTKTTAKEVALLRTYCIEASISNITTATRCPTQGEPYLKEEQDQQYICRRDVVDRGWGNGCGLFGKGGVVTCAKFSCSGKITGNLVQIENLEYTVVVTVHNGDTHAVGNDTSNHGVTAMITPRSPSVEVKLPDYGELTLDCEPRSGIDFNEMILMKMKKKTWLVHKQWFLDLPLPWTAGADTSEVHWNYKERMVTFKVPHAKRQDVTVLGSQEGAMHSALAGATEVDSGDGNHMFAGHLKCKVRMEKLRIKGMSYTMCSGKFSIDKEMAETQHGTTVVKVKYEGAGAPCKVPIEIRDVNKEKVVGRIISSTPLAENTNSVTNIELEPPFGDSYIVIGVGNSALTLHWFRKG
Description: crystal structure. Conditions: both partners purified.

Assay [3] concerns the target T1, ZIKV-H/PF/2013 sE protein (aa 1-404). Briefly: SEC-MALS; Superdex 200 10/300 GL; Tris 50 mM pH 8.0, NaCl 500 mM; about 150 ug protein; proteins alone and in complex. The settings on record: both partners purified. On the technique in general: Size exclusion chromatography separates by hydrodynamic size, large species first.

Changes are numbered by the printed parent chain. Names may count otherwise.

B1: K^L66A C10 mAb mutant (IgG1) (antibody, V domains shown)
VH: EVQLVESGAEVKKPGASVKVSCKASGYTFTSYAMHWVRQAPGQRLEWMGWINAGNGNTKYSQKFQDRVTITRDTSASTAYMELSSLRSEDTAIYYCARDKVDDYGDYWFPTLWYFDYWGQGTLVTVSS
VL: QSALTQPASVSGSPGQSITISCTGTSSDVGGFNYVSWFQQHPGKAPKLMLYDVTSRPSGVSSRFSGSASGNTASLTISGLQAEDEADYYCSSHTSRGTWVFGGGTKLTVL
notes: IgG1
Consider B1, for which the other in assay [1] was found to be 2 fold.

B2: C10 single-chain variable fragment (scFv) (scFv, V domains shown)
VH: B1 VH
VL: B1 VL with A68K
As to B2, the binding result in assay [2] is recorded as “binds”.

B3: C10 intact bivalent IgG1 (human monoclonal antibody EDE1 C10) (antibody, V domains shown)
VH: B1 VH
VL: B1 VL with A68K
B3: the stoichiometry N – broadly, the number of molecules, sites or subunits per partner or assembly – in assay [3] was 1 C10 molecule per sE dimer (2:2).

B4: C10 bivalent F(ab')2 (other, human)
VH: B1 VH
VL: B1 VL with A68K
Take B4: the “stoichiometry N” value in assay [3] is 1 C10 molecule per sE dimer (2:2).

Values taken from article PMC8724787, “The epitope arrangement on flavivirus particles contributes to Mab C10’s extraordinary neutralization breadth across Zika and dengue viruses” (Cell, 2021).
